Test results published in patent publication US20090324646A1 (INSTITUT PASTEUR, published 2009).
Like-named read-outs stand apart in the source and are kept apart here.

Key:
[1] = target: histone H3 purified from calf thymus, P68432
[2] = target: peptide mimicking the histone H3 tail carrying pS10 modification
[3] = target: 33P-labeled Erk2 (GST-Erk2 fusion protein phosphorylated in vitro by MEK1)
[4] = test system: 33P-labeled Erk2 (GST-Erk2 fusion protein phosphorylated in vitro by MEK1); remark: listed apart in the source
[5] = target: NF-κB p65 (endogenous, Caco 2 nuclear extracts) (human, UniProt Q04206 1-551); assay: supershift EMSA of Caco 2 nuclear extracts with anti-p50 and anti-p65 antibodies
Chain of NF-κB p65 (endogenous, Caco 2 nuclear extracts) (Q04206 whole entry): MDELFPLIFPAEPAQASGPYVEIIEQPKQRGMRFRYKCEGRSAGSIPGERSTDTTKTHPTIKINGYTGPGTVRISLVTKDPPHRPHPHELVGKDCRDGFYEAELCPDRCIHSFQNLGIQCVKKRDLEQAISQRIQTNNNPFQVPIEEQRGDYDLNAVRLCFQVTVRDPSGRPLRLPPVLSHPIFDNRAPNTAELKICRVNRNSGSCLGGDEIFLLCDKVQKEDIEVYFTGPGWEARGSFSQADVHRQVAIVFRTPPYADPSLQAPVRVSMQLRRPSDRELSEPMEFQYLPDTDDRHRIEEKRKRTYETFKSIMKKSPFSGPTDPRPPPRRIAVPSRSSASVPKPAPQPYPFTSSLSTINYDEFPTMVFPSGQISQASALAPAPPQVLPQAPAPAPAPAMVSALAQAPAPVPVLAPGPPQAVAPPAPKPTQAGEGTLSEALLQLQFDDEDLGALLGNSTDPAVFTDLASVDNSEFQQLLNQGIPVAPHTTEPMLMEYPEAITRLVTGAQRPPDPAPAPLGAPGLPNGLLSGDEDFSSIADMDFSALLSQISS

B1: OspF phosphatase (purified recombinant protein) (protein)
chain: MPIKKPCLKLNLDSLNVVRSEIPQMLSANERLKNNFNILYNQIRQYPAYYFKVASNVPTYSDICQSFSVMYQGFQIVNHSGDVFIHACRENPQSKGDFVGDKFHISIAREQVPLAFQILSGLLFSEDSPIDKWKITDMNRVSQQSRVGIGAQFTLYVKSDQECSQYSALLLHKIRQFIMCLESNLLRSKIAPGEYPASDVRPEDWKYVSYRNELRSDRDGSERQEQMLREEPFYRLMIE
B1 was tested, and the “in vitro dephosphorylation (Western blot, anti-metK9-pS10 antibody)” value [1] was “OspF did not directly dephosphorylate these substrates, even when the enzyme concentration was increased 100 fold”, the “in vitro dephosphorylation of peptide” value [2] was “OspF did not directly dephosphorylate these substrates, even when the enzyme concentration was increased 100 fold” and the Km [3] was 0.204 µM. The Vmax [3] was 9.89 pM/s, the “dephosphorylation of 33P-labeled Erk2 (gel mobility in SDS-PAGE/autoradiography, Western blot)” value [3] was “Dephosphorylation of Erk2 by both enzymes was confirmed” and the kcat [3] was 0.0001 s⁻¹.

B2: MKP1 (mammalian dual specific phosphatase, Upstate Cell Signaling) (enzyme, UniProt P28562 1-367, looked up, species assumed)
Dual specificity protein phosphatase 1: MVMEVGTLDAGGLRALLGERAAQCLLLDCRSFFAFNAGHIAGSVNVRFSTIVRRRAKGAMGLEHIVPNAELRGRLLAGAYHAVVLLDERSAALDGAKRDGTLALAAGALCREARAAQVFFLKGGYEAFSASCPELCSKQSTPMGLSLPLSTSVPDSAESGCSSCSTPLYDQGGPVEILPFLYLGSAYHASRKDMLDALGITALINVSANCPNHFEGHYQYKSIPVEDNHKADISSWFNEAIDFIDSIKNAGGRVFVHCQAGISRSATICLAYLMRTNRVKLDEAFEFVKQRRSIISPNFSFMGQLLQFESQVLAPHCSAEAGSPAMAVLDRGTSTTTVFNFPVSIPVHSTNSALSYLQSPITTSPSC
B2 was tested, and the Km [4] was 0.229 µM, the Vmax [4] was 6.01 pM/s and the “dephosphorylation of 33P-labeled Erk2 (gel mobility in SDS-PAGE/autoradiography, Western blot)” value [4] was “Dephosphorylation of Erk2 by both enzymes was confirmed”. It also gave a kcat [4] of 0.0006 s⁻¹.

B3: NF-κB p50 (endogenous, Caco 2 nuclear extracts) (other)
chain: MAEDDPYLGRPEQMFHLDPSLTHTIFNPEVFQPQMALPTDGPYLQILEQPKQRGFRFRYVCEGPSHGGLPGASSEKNKKSYPQVKICNYVGPAKVIVQLVTNGKNIHLHAHSLVGKHCEDGICTVTAGPKDMVVGFANLGILHVTKKKVFETLEARMTEACIRGYNPGLLVHPDLAYLQAEGGGDRQLGDREKELIRQAALQQTKEMDLSVVRLMFTAFLPDSTGSFTRRLEPVVSDAIYDSKAPNASNLKIVRMDRTAGCVTGGEEIYLLCDKVQKDDIQIRFYEEEENGGVWEGFGDFSPTDVHRQFAIVFKTPKYKDINITKPASVFVQLRRKSDLETSEPKPFLYYPEIKDKEEVQRKRQKLMPNFSDSFGGGSGAGAGGGGMFGSGGGGGGTGSTGPGYSFPHYGFPTYGGITFHPGTTKSNAGMKHG
B3: binds [5].

B4: lambda phosphatase (protein)
chain: MRYYEKIDGSKYRNIWVVGDLHGCYTNLMNKLDTIGFDNKKDLLISVGDLVDRGAENVECLELITFPWFRAVRGNHEQMMIDGLSERGNVNHWLLNGGGWFFNLDYDKEILAKALAHKADELPLIIELVSKDKKYVICHADYPFDEYEFGKPVDHQQVIWNRERISNSQNGIVKEIKGADTFIFGHTPAVKPLKFANQMYIDTGAVFCGNLTLIQVQGEGA
For B4, the “in vitro dephosphorylation (Western blot, anti-metK9-pS10 antibody)” value [1] was “in contrast to the lambda phosphatase, OspF did not directly dephosphorylate these substrates” and the “in vitro dephosphorylation of peptide” value [2] was “in contrast to the lambda phosphatase, OspF did not directly dephosphorylate these substrates”.
